Paper doi:10.1101/2021.12.28.474374 (bioRxiv, 2021)

Biological target: T1, Ctc1 OB-A (residues 1-183) (Tetrahymena, UniProt A0PGB2 1-183)
T1 sequence (looked up): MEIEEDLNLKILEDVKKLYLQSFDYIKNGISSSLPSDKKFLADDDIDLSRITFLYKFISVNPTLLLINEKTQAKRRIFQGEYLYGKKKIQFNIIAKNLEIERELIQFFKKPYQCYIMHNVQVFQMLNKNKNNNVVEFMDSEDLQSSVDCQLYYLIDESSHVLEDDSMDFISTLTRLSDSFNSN
Assay: NMR titration

stoichiometry N: 1
B1: p50 peptide (residues 228-250) (peptide, UniProt D2CVN8 228-250, looked up)
peptide: CQQDDFGDGCLLQIVNYTHQSLK
